Data from article PMC3866644 (RNA, 2014).

T1: His6 fusion Prp39, full-length (yeast, UniProt P39682 1-629)
T1 sequence: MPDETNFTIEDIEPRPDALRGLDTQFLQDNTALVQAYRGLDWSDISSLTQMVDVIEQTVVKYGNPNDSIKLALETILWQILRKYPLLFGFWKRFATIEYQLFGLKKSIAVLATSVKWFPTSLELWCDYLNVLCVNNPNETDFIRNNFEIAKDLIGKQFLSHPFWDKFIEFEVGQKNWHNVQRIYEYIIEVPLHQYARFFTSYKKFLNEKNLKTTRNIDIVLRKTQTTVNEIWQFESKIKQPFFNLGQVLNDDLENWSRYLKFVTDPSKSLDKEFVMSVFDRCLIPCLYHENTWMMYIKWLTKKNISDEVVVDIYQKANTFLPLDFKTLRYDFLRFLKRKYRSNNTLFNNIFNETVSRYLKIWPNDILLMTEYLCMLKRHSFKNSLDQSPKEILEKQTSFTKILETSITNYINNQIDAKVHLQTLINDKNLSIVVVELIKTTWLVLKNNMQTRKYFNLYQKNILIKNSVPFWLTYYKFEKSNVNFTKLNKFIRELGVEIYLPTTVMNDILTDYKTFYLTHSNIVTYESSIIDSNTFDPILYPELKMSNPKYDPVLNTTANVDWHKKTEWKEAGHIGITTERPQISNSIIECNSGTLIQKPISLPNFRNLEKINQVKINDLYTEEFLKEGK

T2: His6 fusion Prp40, full-length (yeast, UniProt P33203 1-583)
T2 sequence: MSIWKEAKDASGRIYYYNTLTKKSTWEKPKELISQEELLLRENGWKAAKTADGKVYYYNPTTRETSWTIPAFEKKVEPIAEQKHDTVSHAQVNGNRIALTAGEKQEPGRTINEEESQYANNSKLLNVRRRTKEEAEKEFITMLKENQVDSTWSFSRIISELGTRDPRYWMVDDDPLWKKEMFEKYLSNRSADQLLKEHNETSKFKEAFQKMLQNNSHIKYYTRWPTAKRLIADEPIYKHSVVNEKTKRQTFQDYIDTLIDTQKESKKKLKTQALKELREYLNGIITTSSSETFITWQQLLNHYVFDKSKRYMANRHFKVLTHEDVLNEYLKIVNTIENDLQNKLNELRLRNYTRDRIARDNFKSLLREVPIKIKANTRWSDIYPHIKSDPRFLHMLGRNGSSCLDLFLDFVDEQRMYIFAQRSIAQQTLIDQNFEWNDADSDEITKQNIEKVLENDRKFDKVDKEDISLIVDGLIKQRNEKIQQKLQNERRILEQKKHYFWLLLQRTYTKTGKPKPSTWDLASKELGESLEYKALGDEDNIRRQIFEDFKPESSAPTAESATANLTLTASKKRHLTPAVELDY

T3: His6 fusion Prp28 (yeast, UniProt P23394 1-588)
T3 sequence: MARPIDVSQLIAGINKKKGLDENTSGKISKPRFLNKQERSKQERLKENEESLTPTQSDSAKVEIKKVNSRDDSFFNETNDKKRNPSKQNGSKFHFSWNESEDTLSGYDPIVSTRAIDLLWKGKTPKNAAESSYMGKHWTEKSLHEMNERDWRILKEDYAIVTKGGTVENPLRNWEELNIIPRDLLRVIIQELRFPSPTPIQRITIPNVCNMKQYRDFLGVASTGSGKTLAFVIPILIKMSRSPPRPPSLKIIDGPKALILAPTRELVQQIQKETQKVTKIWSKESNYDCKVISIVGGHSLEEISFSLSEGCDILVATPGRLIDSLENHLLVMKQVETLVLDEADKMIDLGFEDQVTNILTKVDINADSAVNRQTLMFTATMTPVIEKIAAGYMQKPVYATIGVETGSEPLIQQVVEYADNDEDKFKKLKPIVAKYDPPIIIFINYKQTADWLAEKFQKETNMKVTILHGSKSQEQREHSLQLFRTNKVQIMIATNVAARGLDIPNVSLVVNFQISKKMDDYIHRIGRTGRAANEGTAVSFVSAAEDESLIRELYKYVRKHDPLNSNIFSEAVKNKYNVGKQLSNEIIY

B1: GST-fusion Prp8-NTD (Prp8 residues 1-330), wild-type sequence (domain or fragment)
chain: not shown
B2: GST-fusion Prp8-NTD(P263L/W279G) (domain or fragment)
chain: MSGLPPPPPGFEEDSDLALPPPPPPPPGYEIEELDNPMVPSSVNEDTFLPPPPPPPSNFEINAEEIVDFTLPPPPPPPGLDELETKAEKKVELHGKRKLDIGKDTFVTRKSRKRAKKMTKKAKRSNLYTPKAEMPPEHLRKIINTHSDMASKMYNTDKKAFLGALKYLPHAILKLLENMPHPWEQAKEVKVLYHTSGAITFVNETPRVIEPVYTAQWSATWIAMRREKRDRTHFKRMRFPPFDDDEPPLSYEQHIENIEPLDLINLPLDSQDDEYVKDGLYDSRPLEEDSKKVNGTSYKKWSFDLPEMSNLYRLSTPLRDEVTDKNYYYL
B3: GST-fusion Prp8-NTD(R226G) (domain or fragment)
chain: MSGLPPPPPGFEEDSDLALPPPPPPPPGYEIEELDNPMVPSSVNEDTFLPPPPPPPSNFEINAEEIVDFTLPPPPPPPGLDELETKAEKKVELHGKRKLDIGKDTFVTRKSRKRAKKMTKKAKRSNLYTPKAEMPPEHLRKIINTHSDMASKMYNTDKKAFLGALKYLPHAILKLLENMPHPWEQAKEVKVLYHTSGAITFVNETPRVIEPVYTAQWSATWIAMRGEKRDRTHFKRMRFPPFDDDEPPLSYEQHIENIEPLDPINLPLDSQDDEYVKDWLYDSRPLEEDSKKVNGTSYKKWSFDLPEMSNLYRLSTPLRDEVTDKNYYYL
B4: GST-fusion Prp8-NTD(D273G) (domain or fragment)
chain: MSGLPPPPPGFEEDSDLALPPPPPPPPGYEIEELDNPMVPSSVNEDTFLPPPPPPPSNFEINAEEIVDFTLPPPPPPPGLDELETKAEKKVELHGKRKLDIGKDTFVTRKSRKRAKKMTKKAKRSNLYTPKAEMPPEHLRKIINTHSDMASKMYNTDKKAFLGALKYLPHAILKLLENMPHPWEQAKEVKVLYHTSGAITFVNETPRVIEPVYTAQWSATWIAMRREKRDRTHFKRMRFPPFDDDEPPLSYEQHIENIEPLDPINLPLDSQDGEYVKDWLYDSRPLEEDSKKVNGTSYKKWSFDLPEMSNLYRLSTPLRDEVTDKNYYYL

Assays:
Assay in all cases: pull-down
[1] = target: T1, His6 fusion Prp39, full-length
[2] = target: T2, His6 fusion Prp40, full-length
His6 fusion Prp28 = target: T3, His6 fusion Prp28

Binder | binding result [1] | binding result [2] | binding result (His6 fusion Prp28)
B1 | binds | binds | binds
B2 | binds | binds | 
B3 | binds | binds | 
B4 | binds | binds | 
